We go through three molecules from US20200109211A1 (ELSALYS BIOTECH, published 2020).

Assay [1] has as its target T1, recombinant human CD160 protein, soluble form, with a C-terminal tag of 6 histidine residues (R&D SYSTEMS) (human, UniProt O95971 27-159, limits assumed, biotinylated with EZ-Link sulfo-NHS-LC-biotin for BLI and ELISA; not biotinylated when immobilised on the CM5 chip for SPR).
T1 construct: domain: soluble form; Bought protein; also called hCD160-his; biotinylated CD160
T1 sequence: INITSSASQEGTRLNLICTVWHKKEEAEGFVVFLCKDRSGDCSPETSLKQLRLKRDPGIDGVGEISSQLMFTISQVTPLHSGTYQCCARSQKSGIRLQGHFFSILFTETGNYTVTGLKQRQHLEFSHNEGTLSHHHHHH
In words: SPR (Biacore), design close to Example 2.

Assay [2] has as its target T1, recombinant human CD160 protein, …. In words: BLI, biotinylated CD160 at 10 nM on streptavidin sensor, antibody 3.13-100 nM. Background: BLI is a label-free optical method that tracks binding on a fibre tip over time.
Assay [3] addresses T2, human CD160 (CD160 GPI isoform) on cells (human, UniProt O95971 25-159, GPI anchor).
T2 construct: whole, on cells; Used for all cells said to carry human CD160: transfected CHO-S and E300 cells and cells that carry it naturally (YT2C2, blood NK, CD8+ T, T CD4, CLL cells); also called hCD160; CHO-S-hCD160 (clone 2G10)
T2 sequence (looked up): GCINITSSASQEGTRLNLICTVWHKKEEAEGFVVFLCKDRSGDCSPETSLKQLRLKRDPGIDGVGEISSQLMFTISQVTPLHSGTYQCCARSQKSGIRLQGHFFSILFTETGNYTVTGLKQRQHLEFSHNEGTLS
In words: flow cytometry on CHO-hCD160 transfectants. Here is the method: The binding capacity of the anti-CD160 H7 antibodies and of the variants (D12 and A09) thereof in the IgG4 and IgG1 format and in the IgG1 E345K format was evaluated during the labelling of surface CD160 expressed in a recombinant line CHO-S-hCD160 (clone 2G10) in comparison with non-transfected CHO-S cells, by measuring the median fluorescence index (MFI) (see FIG. 1). For this, 5×10⁺⁵ 2G10 (CHO-S-CD160) and non-transfected CHO-S cells were labelled with 2 μg of each of these antibodies and also with the appropriate control isotypes. In FIG. 1, all the anti-CD160 tested (regardless of the isotype or the IgG format or the variant) specifically recognize human CD160 expressed recombinantly by the CHO-S cells.
In FIG. 1B, the IgG4 variants bind more efficiently to the CHO-hCD160 transfectants than H7 (which results in a median fluorescence increased by a factor of 2 compared with H7 IgG4 ELB01101 or with H7 IgG4 H310A-H435Q ELB01102), this being even in the presence of the H310A-H435Q mutations.
In general terms: In flow cytometry, cells or beads pass a laser one at a time.

The target of assay [4] is T2, human CD160 (CD160 GPI isoform) on cells. Briefly: cell-based or functional assay.
Assay [5] concerns the target T1, recombinant human CD160 protein, …. Briefly: BLI (repeats Table 9).
Assay [6] has the same target. Briefly: BLI.
The target in assay [7] is T2, human CD160 (CD160 GPI isoform) on cells. In words: flow cytometry, percentage of labelled YT2C2 NK cells (2x10^5 cells), antibody 0.39 to 50 nM [panel C]. As for the experimental part:
The binding capacity of the anti-CD160 H7 antibody and of the H7 D12 variant in the IgG4, Fab and Fab-linker Fab format was evaluated during the labelling of surface CD160 expressed naturally on a clone of NK cell line (YT2C2), by measuring the percentage of cell labelled=percentage of binding (see FIG. 1C). For this, 2×10⁺⁵ YT2C2 cells were labelled with increasing concentration of antibodies (from 50 nM to 0.39 nM) and also with the appropriate control isotype. […] In FIG. 1C, IgG4 variants ELB01103 and ELB01104 bind more efficiently to the YT2C2 cells than the H7 IgG4 ELB01101 (which results in a EC₅₀ increased by a factor of 10 compared with H7 IgG4). This is also true for the Fab-linker-Fab format ELB01132. By contrast Fab format ELB01122 bind less efficiently to the YT2C2 cells than the H7 IgG4 ELB01101 (which results in a EC₅₀ decreased by a factor of 2 compared with H7 IgG4). This is certainly due to the monovalency of the Fab format.

Assay [8] has as its target T1, recombinant human CD160 protein, …. Briefly: BLI (Octet K2), biotinylated hCD160-His on streptavidin sensor, antibody as analyte. As for the experimental part: (§1) All the experiments were carried out at 30° C. in the running buffer recommended by Fortebio (PBS with 0.1% (p/v) of bovine serum albumin (BSA) and 0.02% (v/v) Tween-20). This buffer was also used for diluting the various ligands and analytes. The samples deposited in a 96-well microplate (cat #738-0026, Dutscher) were shaken at 1000 revolutions per minute.
Between the measurements, the surfaces of the biosensor were regenerated by exposing them to 3 cycles of 5 sec in 10 mM glycine, pH 2, followed by 5 sec in running buffer. The association and dissociation phases were measured for 300 seconds. All the measurements were corrected for the basic drift by subtracting a reference well with a ligand subjected only to the running buffer.
(§2) The dissociation constants and the association (kₒₙ) and dissociation (kdis) rate constants for each antibody were calculated by applying a 1:1 interaction model, with overall mathematical modelling of curves (fit) (Rmax bound by the sensor) on the ForteBio 9.0 data analysis software.

The target is the same in assay [9]. In words: BLI, biotinylated CD160 at 10 nM on streptavidin sensor, antibody 3.13-100 nM (row repeated from Table 9). Here is the method: as §1, §2

B1: A09 in the IgG1 format (antibody)
heavy: not shown
light: EIVLTQSPATLSLSPGERATLSCRASQSISNHLHWYQQKPGQAPRLLIKYASQSISGIPARFSGSGSGTDFTLTISSLEPEDFAVYFCQQSNSWPLTFGGGTKVEIKRTVAAPSVFIFPPSDEQLKSGTASVVCLLNNFYPREAKVQWKVDNALQSGNSQESVTEQDSKDSTYSLSSTLTLSKADYEKHKVYACEVTHQGLSSPVTKSFNRGEC
notes: also called ELB02104; H7 A09 variant in IgG1 format
As to B1, the “Gain in KD/respective IgG” value was 3 fold in assay [1] and 2 fold in [6]. Moreover, the Kd (in general, the constant that tells how readily two partners part at equilibrium) in assay [1] came to 3.9 nM; in assay [2], 1.47 nM; in assay [5], 1.47 nM. Further, the koff (commonly a measure of how fast the partners let go of each other) in assay [1] was found to be 0.000877 s⁻¹; in assay [2] it was 0.000651 s⁻¹; in assay [5], 0.000651 s⁻¹. Also, the kon (commonly the second-order rate constant of association) in [1] amounted to 223000 M⁻¹ s⁻¹; in [2], 442000 M⁻¹ s⁻¹; in [5] it was 442000 M⁻¹ s⁻¹. The “median fluorescence, factor against H7 IgG1” value in assay [3] was determined as 3 fold. Besides, the “EC50 of NK cell activation (IFN-γ, CD69), improvement against ELB02101” value in [4] fell in the range of 2 to 3 logs.

B2: H7 D12 in the Fab linker Fab format (other)
heavy: QVQLVQSGAEVKKPGASVKVSCKASGYTFSDFWMQWIRQAPGQGLEWIGAIYPGDDDARVTQKFRGRATLTADKSTSTAYMELSSLRSEDTAVYYCARRGIAAVVGGFDYWGQGTTLTVSSASTKGPSVFPLAPSSKSTSGGTAALGCLVKDYFPEPVTVSWNSGALTSGVHTFPAVLQSSGLYSLSSVVTVPSSSLGTQTYICNVNHKPSNTKVDKRVEPKSCDKGGGGSGGGGSGGGGSQVQLVQSGAEVKKPGASVKVSCKASGYTFSDFWMQWIRQAPGQGLEWIGAIYPGDDDARVTQKFRGRATLTADKSTSTAYMELSSLRSEDTAVYYCARRGIAAVVGGFDYWGQGTTLTVSSASTKGPSVFPLAPSSKSTSGGTAALGCLVKDYFPEPVTVSWNSGALTSGVHTFPAVLQSSGLYSLSSVVTVPSSSLGTQTYICNVNHKPSNTKVDKRVEPKSCDK
light: EIVLTQSPATLSLSPGERATLSCRASQSISNHLHWYQQKPGQAPRLLIKYASQSISGIPARFSGSGSGTDFTLTISSLEPEDFAVYFCQQSNSWPLTFGGGTKVEIKRTVAAPSVFIFPPSDEQLKSGTASVVCLLNNFYPREAKVQWKVDNALQSGNSQESVTEQDSKDSTYSLSSTLTLSKADYEKHKVYACEVTHQGLSSPVTKSFNRGEC
notes: two light chains follow from the format; also called ELB01132; D12 Fab linker Fab
Consider B2, for which the EC50 (read off the curve) (as a rule, the concentration that produces a half-maximal response) in assay [7] is around 2 nM.

B3: anti-CD160 H7 antibody in the human IgG1 format (antibody)
heavy: not shown
light: EIVLTQSPATLSLSPGERATLSCRASQSISNHLHWYQQKPGQAPRLLIKYASQSISGIPARFSGSGSGTDFTLTISSLEPEDFAVYFCQQSNSWPLTFGGGTKVEIKRTVAAPSVFIFPPSDEQLKSGTASVVCLLNNFYPREAKVQWKVDNALQSGNSQESVTEQDSKDSTYSLSSTLTLSKADYEKHKVYACEVTHQGLSSPVTKSFNRGEC
notes: also called H7 IgG1; ELB02101
Turning to B3, the dissociation constant (Kd) in assay [1] is 12 nM; in assay [2], 2.94 nM; in assay [8], 4 nM; in assay [5], 2.94 nM; in [9], 2.94 nM. The koff in assay [1] was 0.00251 s⁻¹; in assay [2], 0.00109 s⁻¹; in assay [8] it was 0.00235 s⁻¹; in assay [5], 0.00109 s⁻¹; in assay [9], 0.00109 s⁻¹. Moreover, the association rate constant (kon) came out at 209000 M⁻¹ s⁻¹ in assay [1]; 370000 M⁻¹ s⁻¹ in [2]; 587000 M⁻¹ s⁻¹ in assay [8]; 370000 M⁻¹ s⁻¹ in [5]; 370000 M⁻¹ s⁻¹ in [9]. Also, the “Binding response, at 50 nM of anti-CD160” value in [8] was 1.01 nm (arbitrary units).
